Reference: publication PMC7954794, “Protein context shapes the specificity of SH3 domain-mediated interactions in vivo” (Nature Communications, 2021)

B1: HSE1 (protein, UniProt P38753 2-452, looked up)
Class E vacuolar …: SSSAIKIRNALLKATDPKLRSDNWQYILDVCDLVKEDPEDNGQEVMSLIEKRLEQQDANVILRTLSLTVSLAENCGSRLRQEISSKNFTSLLYALIESHSVHITLKKAVTDVVKQLSDSFKDDPSLRAMGDLYDKIKRKAPYLVQPNVPEKHNMSTQADNSDDEELQKALKMSLFEYEKQKKLQEQEKESAEVLPQQQQQHQQQNQAPAHKIPAQTVVRRVRALYDLTTNEPDELSFRKGDVITVLEQVYRDWWKGALRGNMGIFPLNYVTPIVEPSKEEIEKEKNKEAIVFSQKTTIDQLHNSLNAASKTGNSNEVLQDPHIGDMYGSVTPLRPQVTRMLGKYAKEKEDMLSLRQVLANAERSYNQLMDRAANAHISPPVPGPALYAGMTHANNTPVMPPQRQSYQSNEYSPYPSNLPIQHPTNSANNTPQYGYDLGYSVVSQPPPGYEQ
B2: HOF1 (protein, UniProt Q05080 1-669, looked up)
Cytokinesis protein 2: MSYSYEACFWDPNDNGVNILLGHISQGIRSCDSMILFFKQRSELEKDYARRLGAITGKLDKDIGTNMDYGKLNETFNVVLSVEKARAQSHSKQSEILFRQIYTDTKAFAANLQARYTTLSGKIERLRMDKFNKKKGCEVLQKKLQDAQIRFRDLQLNENNMIGAKRVEHNKRELLKWESNSQEYKVQLDVLKQEYKASQKFWIHEWAQLSCELQEMENARISFLQSKLQQFATSSMETYILEQTKMDMLTNHLNSFTAADEISTFSKENGTGRLKHKTSKGDMNSSANWAQMSSISTTSKKTESYMDNIRKLSSQLKETENKRKLASIDKYEKPLPSPEVTMATQFRNSTPVIRNETKVVANPTLSLRSSPVQLQSNVDDSVLRQKPDKPRPIVGEEQLKPDEDSKNPDEKGLMVHKRNQSLSSPSESSSSNPTDFSHIKKRQSMESMTTSVSSMANSIDDSQRFAKSWNSSNRKRKSMSHLQVPSSASSRSDDGGRTPNSAHNLNEDDYNTRRDTSTSTILFKPPVAVRGTSRGHTHRQSMIMQDSSNPIEDALYEMERIQSSSKPGTKTGNIMDERGVVRDRGITVTLPIVTSEGFPVIEYAKAMYPLIGNEAPGLANFHKGDYLLITEIVNKDWYKGEVYDNDRIDRNHRIGLIPYNFIQLLHQGL

System: Abp1 PPIs
Assay: DHFR-PCA of Abp1 SH3-swapped baits (Fig. 2B-D, S2C, S2F);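 for Protein-protein interaction distance between Abp1 SH3-swapped baits, to ABP1: Euclidean distance between DHFR-PCA score profiles of the baits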;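 for Protein-protein interaction distance between Abp1 SH3-swapped baits, to BEM1-2: Euclidean distance between DHFR-PCA score profiles of the baits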;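 for Protein-protein interaction distance between Abp1 SH3-swapped baits, to BOI1: Euclidean distance between DHFR-PCA score profiles of the baits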;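 for Protein-protein interaction distance between Abp1 SH3-swapped baits, to BZZ1-1: Euclidean distance between DHFR-PCA score profiles of the baits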
Assay type: cell-based, Saccharomyces cerevisiae
Conditions: for Protein-protein interaction distance between Abp1 SH3-swapped baits, to ABP1: Abp1 bait with swapped SH3, distance to bait with ABP1 SH3; for Protein-protein interaction distance between Abp1 SH3-swapped baits, to ABP1 / Protein-protein interaction distance between Abp1 SH3-swapped baits, to BBC1 / Protein-protein interaction distance between Abp1 SH3-swapped baits, to BEM1-1 / Protein-protein interaction distance between Abp1 SH3-swapped baits, to BEM1-2 / Protein-protein interaction distance between Abp1 SH3-swapped baits, to BOI1 / Protein-protein interaction distance between Abp1 SH3-swapped baits, to BOI2 / Protein-protein interaction distance between Abp1 SH3-swapped baits, to BUD14 / Protein-protein interaction distance between Abp1 SH3-swapped baits, to BZZ1-1 / Protein-protein interaction distance between Abp1 SH3-swapped baits, to BZZ1-2 / Protein-protein interaction distance between Abp1 SH3-swapped baits, to CDC25 / Protein-protein interaction distance between Abp1 SH3-swapped baits, to CTTN / Protein-protein interaction distance between Abp1 SH3-swapped baits, to CYK3 / Protein-protein interaction distance between Abp1 SH3-swapped baits, to DBNL / Protein-protein interaction distance between Abp1 SH3-swapped baits, to FUS1 / Protein-protein interaction distance between Abp1 SH3-swapped baits, to HCLS1 / Protein-protein interaction distance between Abp1 SH3-swapped baits, to HOF1 / Protein-protein interaction distance between Abp1 SH3-swapped baits, to HSE1 / Protein-protein interaction distance between Abp1 SH3-swapped baits, to LSB1 / Protein-protein interaction distance between Abp1 SH3-swapped baits, to LSB3 / Protein-protein interaction distance between Abp1 SH3-swapped baits, to MYO3 / Protein-protein interaction distance between Abp1 SH3-swapped baits, to MYO5 / Protein-protein interaction distance between Abp1 SH3-swapped baits, to NBP2 / Protein-protein interaction distance between Abp1 SH3-swapped baits, to PEX13 / Protein-protein interaction distance between Abp1 SH3-swapped baits, to PIN3 / Protein-protein interaction distance between Abp1 SH3-swapped baits, to RVS167 / Protein-protein interaction distance between Abp1 SH3-swapped baits, to SDC25 / Protein-protein interaction distance between Abp1 SH3-swapped baits, to SHO1 / Protein-protein interaction distance between Abp1 SH3-swapped baits, to SLA1-1 / Protein-protein interaction distance between Abp1 SH3-swapped baits, to SLA1-2 / Protein-protein interaction distance between Abp1 SH3-swapped baits, to SLA1-3 / Protein-protein interaction distance between Abp1 SH3-swapped baits, to YSC84: sheet Fig2C; for Protein-protein interaction distance between Abp1 SH3-swapped baits, to BBC1: distance to Abp1 bait with BBC1 SH3; for Protein-protein interaction distance between Abp1 SH3-swapped baits, to BEM1-1: distance to Abp1 bait with BEM1-1 SH3; for Protein-protein interaction distance between Abp1 SH3-swapped baits, to BEM1-2: distance to Abp1 bait with BEM1-2 SH3; for Protein-protein interaction distance between Abp1 SH3-swapped baits, to BOI1: distance to Abp1 bait with BOI1 SH3; for Protein-protein interaction distance between Abp1 SH3-swapped baits, to BOI2: distance to Abp1 bait with BOI2 SH3; for Protein-protein interaction distance between Abp1 SH3-swapped baits, to BUD14: distance to Abp1 bait with BUD14 SH3; for Protein-protein interaction distance between Abp1 SH3-swapped baits, to BZZ1-1: distance to Abp1 bait with BZZ1-1 SH3; for Protein-protein interaction distance between Abp1 SH3-swapped baits, to BZZ1-2: distance to Abp1 bait with BZZ1-2 SH3; for Protein-protein interaction distance between Abp1 SH3-swapped baits, to CDC25: distance to Abp1 bait with CDC25 SH3; for Protein-protein interaction distance between Abp1 SH3-swapped baits, to CTTN: distance to Abp1 bait with CTTN SH3; for Protein-protein interaction distance between Abp1 SH3-swapped baits, to CYK3: distance to Abp1 bait with CYK3 SH3; for Protein-protein interaction distance between Abp1 SH3-swapped baits, to DBNL: distance to Abp1 bait with DBNL SH3; for Protein-protein interaction distance between Abp1 SH3-swapped baits, to FUS1: distance to Abp1 bait with FUS1 SH3; for Protein-protein interaction distance between Abp1 SH3-swapped baits, to HCLS1: distance to Abp1 bait with HCLS1 SH3; for Protein-protein interaction distance between Abp1 SH3-swapped baits, to HOF1: distance to Abp1 bait with HOF1 SH3; for Protein-protein interaction distance between Abp1 SH3-swapped baits, to HSE1: distance to Abp1 bait with HSE1 SH3; for Protein-protein interaction distance between Abp1 SH3-swapped baits, to LSB1: distance to Abp1 bait with LSB1 SH3; for Protein-protein interaction distance between Abp1 SH3-swapped baits, to LSB3: distance to Abp1 bait with LSB3 SH3; for Protein-protein interaction distance between Abp1 SH3-swapped baits, to MYO3: distance to Abp1 bait with MYO3 SH3; for Protein-protein interaction distance between Abp1 SH3-swapped baits, to MYO5: distance to Abp1 bait with MYO5 SH3; for Protein-protein interaction distance between Abp1 SH3-swapped baits, to NBP2: distance to Abp1 bait with NBP2 SH3; for Protein-protein interaction distance between Abp1 SH3-swapped baits, to PEX13: distance to Abp1 bait with PEX13 SH3; for Protein-protein interaction distance between Abp1 SH3-swapped baits, to PIN3: distance to Abp1 bait with PIN3 SH3; for Protein-protein interaction distance between Abp1 SH3-swapped baits, to RVS167: distance to Abp1 bait with RVS167 SH3; for Protein-protein interaction distance between Abp1 SH3-swapped baits, to SDC25: distance to Abp1 bait with SDC25 SH3; for Protein-protein interaction distance between Abp1 SH3-swapped baits, to SHO1: distance to Abp1 bait with SHO1 SH3; for Protein-protein interaction distance between Abp1 SH3-swapped baits, to SLA1-1: distance to Abp1 bait with SLA1-1 SH3; for Protein-protein interaction distance between Abp1 SH3-swapped baits, to SLA1-2: distance to Abp1 bait with SLA1-2 SH3; for Protein-protein interaction distance between Abp1 SH3-swapped baits, to SLA1-3: distance to Abp1 bait with SLA1-3 SH3; for Protein-protein interaction distance between Abp1 SH3-swapped baits, to YSC84: distance to Abp1 bait with YSC84 SH3; for PPIs gained by Abp1 - SH3-dependent PPIs gained by Abp1 / SH3-dependent PPIs - SH3-dependent PPIs gained by Abp1 / SH3-dependent PPIs gained by Abp1: number of PPIs, Abp1 SH3-swapped with the listed SH3, Fig2D,S2F; for PPIs gained by Abp1 - SH3-dependent PPIs gained by Abp1 / SH3-dependent PPIs - SH3-dependent PPIs gained by Abp1: difference; for SH3-dependent PPIs gained by Abp1: DHFR-PCA
Summary of the method: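 Yeast DHFR-PCA in which Abp1 baits, carrying their SH3 replaced by CRISPR–Cas9 with one of 27 yeast SH3s or human CTTN, HCLS1 or DBNL SH3s, were mated against 575 SH3-associated DHFR F[3] preys plus 40 negative controls. Four tests were run per PPI. Diploids were selected twice (48 h, 30 °C), then grown 4 days on PCA selection media.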

Molecule	Protein-protein interaction distance between Abp1 SH3-swapped baits, to ABP1	Protein-protein interaction distance between Abp1 SH3-swapped baits, to BBC1	Protein-protein interaction distance between Abp1 SH3-swapped baits, to BEM1-1	Protein-protein interaction distance between Abp1 SH3-swapped baits, to BEM1-2	Protein-protein interaction distance between Abp1 SH3-swapped baits, to BOI1	Protein-protein interaction distance between Abp1 SH3-swapped baits, to BOI2	Protein-protein interaction distance between Abp1 SH3-swapped baits, to BUD14	Protein-protein interaction distance between Abp1 SH3-swapped baits, to BZZ1-1	Protein-protein interaction distance between Abp1 SH3-swapped baits, to BZZ1-2	Protein-protein interaction distance between Abp1 SH3-swapped baits, to CDC25	Protein-protein interaction distance between Abp1 SH3-swapped baits, to CTTN	Protein-protein interaction distance between Abp1 SH3-swapped baits, to CYK3	Protein-protein interaction distance between Abp1 SH3-swapped baits, to DBNL	Protein-protein interaction distance between Abp1 SH3-swapped baits, to FUS1	Protein-protein interaction distance between Abp1 SH3-swapped baits, to HCLS1	Protein-protein interaction distance between Abp1 SH3-swapped baits, to HOF1	Protein-protein interaction distance between Abp1 SH3-swapped baits, to HSE1	Protein-protein interaction distance between Abp1 SH3-swapped baits, to LSB1	Protein-protein interaction distance between Abp1 SH3-swapped baits, to LSB3	Protein-protein interaction distance between Abp1 SH3-swapped baits, to MYO3	other results
B1	9.43	7.295	11.1	30.97	7.847	11.78	14.54	5.175	7.81	24.19	9.154	25.16	5.82	16.23	9.236	29.42	0.00	12.02	12.29	11.17	Protein-protein interaction distance between Abp1 SH3-swapped baits, to MYO5: 10.84; Protein-protein interaction distance between Abp1 SH3-swapped baits, to NBP2: 13.88; Protein-protein interaction distance between Abp1 SH3-swapped baits, to PEX13: 8.715; Protein-protein interaction distance between Abp1 SH3-swapped baits, to PIN3: 9.808; Protein-protein interaction distance between Abp1 SH3-swapped baits, to RVS167: 7.315; Protein-protein interaction distance between Abp1 SH3-swapped baits, to SDC25: 31.59; Protein-protein interaction distance between Abp1 SH3-swapped baits, to SHO1: 5.64; Protein-protein interaction distance between Abp1 SH3-swapped baits, to SLA1-1: 27.26; Protein-protein interaction distance between Abp1 SH3-swapped baits, to SLA1-2: 16.63; Protein-protein interaction distance between Abp1 SH3-swapped baits, to SLA1-3: 11.86; Protein-protein interaction distance between Abp1 SH3-swapped baits, to YSC84: 12.83; PPIs gained by Abp1 - SH3-dependent PPIs gained by Abp1: 4; SH3-dependent PPIs - SH3-dependent PPIs gained by Abp1: 1; SH3-dependent PPIs gained by Abp1: 0
B2	30.98	29.63	23.16	6.415	26.74	25.74	21.88	30.35	27.6	10.42	25.67	10.8	29.45	21.29	32.71	0.00	29.42	35.15	34.67	33.94	Protein-protein interaction distance between Abp1 SH3-swapped baits, to MYO5: 33.29; Protein-protein interaction distance between Abp1 SH3-swapped baits, to NBP2: 21.63; Protein-protein interaction distance between Abp1 SH3-swapped baits, to PEX13: 33.79; Protein-protein interaction distance between Abp1 SH3-swapped baits, to PIN3: 32.38; Protein-protein interaction distance between Abp1 SH3-swapped baits, to RVS167: 32.19; Protein-protein interaction distance between Abp1 SH3-swapped baits, to SDC25: 7.905; Protein-protein interaction distance between Abp1 SH3-swapped baits, to SHO1: 29.05; Protein-protein interaction distance between Abp1 SH3-swapped baits, to SLA1-1: 9.015; Protein-protein interaction distance between Abp1 SH3-swapped baits, to SLA1-2: 20.72; Protein-protein interaction distance between Abp1 SH3-swapped baits, to SLA1-3: 35.48; Protein-protein interaction distance between Abp1 SH3-swapped baits, to YSC84: 34.92; PPIs gained by Abp1 - SH3-dependent PPIs gained by Abp1: 1; SH3-dependent PPIs - SH3-dependent PPIs gained by Abp1: 4; SH3-dependent PPIs gained by Abp1: 0
